Biological target: the molecule itself
Test: native gel or EMSA; His-tagged association domains purified from HeLa cells, incubated in 25 mM HEPES pH 7.3, 50 mM KCl, 1 mM DTT for 1 hour at 37°C; native-PAGE, silver staining

B1: His-tagged association domain of CaMKIIα, wild type (domain or fragment, rat, UniProt P11275 345-478, looked up)
chain: VRKQEIIKVTEQLIEAISNGDFESYTKMCDPGMTAFEPEALGNLVEGLDFHRFYFENLWSRNSKPVHTTILNPHIHLMGDESACIAYIRITQYLDAGGIPRTAQSEETRVWHRRDGKWQIVHFHRSGAPSVLPH
notes: association domain of CaMKIIα, rat, 345-end; Printed molecular weight of the His-tagged domain: 19,800; The limits 345-end are stated for the library fragment; they are not restated for the HeLa expression construct; also called AD WT; source: HeLa, transfected, purified (Ni-Sepharose)
binding result: binds

Reference: publication PMC4370617, “Development of a Molecularly Evolved, Highly Sensitive CaMKII FRET Sensor with Improved Expression Pattern” (PLoS ONE, 2015)
